Assay [1] addresses T1, HCV proteins (Hepatitis C virus genotype 1b, UniProt Q9WMX2).
T1 construct: expressed in transfected cells
Put plainly: Validation by Y2H pairwise matrices.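 Note: yeast two-hybrid pairwise tests of interactions first found in Y2H screens of HCV bait proteins against human cDNA libraries.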 In kind it is binding. Particulars: validation of interaction with HCV protein NS3.

Assay [2] concerns HCV ORFs (Gal4-DB fusions). In kind it is binding, HCV genotype 1b, isolate con1. The following applies: human protein listed by gene symbol; the value names the HCV protein it interacts with.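 Note: yeast two-hybrid screens using HCV genotype 1b proteins fused to Gal4-DB as baits against prey cDNA libraries from human spleen and foetal brain, IMAP1 via transformation and IMAP2 via mating.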
Assay [3] addresses T2, HCV ORFs (Gal4-DB fusions) (Hepatitis C virus genotype 1b, UniProt Q9WMX2).
T2 construct: expressed in transfected cells; host or cells: Saccharomyces cerevisiae MAV203 (IMAP1) / AH109 (IMAP2)
In kind it is binding, HCV genotype 1b, isolate con1. Particulars: HCV protein NS3 as bait; human protein as prey.

T2 sequence (Q9WMX2 1027-1657): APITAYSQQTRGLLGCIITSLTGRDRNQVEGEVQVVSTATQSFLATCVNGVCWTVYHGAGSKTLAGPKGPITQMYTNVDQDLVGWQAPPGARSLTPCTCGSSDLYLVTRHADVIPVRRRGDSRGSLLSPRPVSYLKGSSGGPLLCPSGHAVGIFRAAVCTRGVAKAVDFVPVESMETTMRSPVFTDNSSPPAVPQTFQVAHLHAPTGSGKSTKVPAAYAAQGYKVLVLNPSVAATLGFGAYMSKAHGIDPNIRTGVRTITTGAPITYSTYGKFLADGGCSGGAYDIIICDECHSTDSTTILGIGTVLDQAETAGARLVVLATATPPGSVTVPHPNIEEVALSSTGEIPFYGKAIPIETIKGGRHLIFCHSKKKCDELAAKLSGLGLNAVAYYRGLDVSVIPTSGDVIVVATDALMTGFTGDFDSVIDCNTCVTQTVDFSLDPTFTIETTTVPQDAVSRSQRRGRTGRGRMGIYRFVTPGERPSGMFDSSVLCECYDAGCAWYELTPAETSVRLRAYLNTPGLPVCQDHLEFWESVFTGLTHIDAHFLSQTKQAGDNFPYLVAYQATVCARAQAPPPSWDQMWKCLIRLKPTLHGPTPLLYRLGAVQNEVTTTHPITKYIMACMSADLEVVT
T1 sequence (Q9WMX2 1027-1657): as above

B1: ZNF410 (protein, UniProt Q86VK4 1-478, looked up)
Zinc finger protein 410: MLSDELESKPELLVQFVQNTSIPLGQGLVESEAKDITCLSLLPVTEASECSRLMLPDDTTNHSNSSKEVPSSAVLRSLRVNVGPDGEETRAQTVQKSPEFLSTSESSSLLQDLQPSDSTSFILLNLTRAGLGSSAEHLVFVQDEAEDSGNDFLSSESTDSSIPWFLRVQELAHDSLIAATRAQLAKNAKTSSNGENVHLGSGDGQSKDSGPLPQVEKKLKCTVEGCDRTFVWPAHFKYHLKTHRNDRSFICPAEGCGKSFYVLQRLKVHMRTHNGEKPFMCHESGCGKQFTTAGNLKNHRRIHTGEKPFLCEAQGCGRSFAEYSSLRKHLVVHSGEKPHQCQVCGKTFSQSGSRNVHMRKHHLQLGAAGSQEQEQTAEPLMGSSLLEEASVPSKNLVSMNSQPSLGGESLNLPNTNSILGVDDEVLAEGSPRSLSSVPDVTHHLVTMQSGRQSYEVSVLTAVNPQELLNQGDLTERRT
Turning to B1, the Y2H matrices entry in assay [1] was “+”. Besides, the “Interaction with viral protein” value in assay [2] is recorded as “NS3”. Moreover, the “IMAP Y2H IMAP1 (number of IST)” value in assay [3] was 1.

B2: ZBTB1 (protein, UniProt Q9Y2K1 1-713, looked up)
Zinc finger and BTB …: MAKPSHSSYVLQQLNNQREWGFLCDCCIAIDDIYFQAHKAVLAACSSYFRMFFMNHQHSTAQLNLSNMKISAECFDLILQFMYLGKIMTAPSSFEQFKVAMNYLQLYNVPDCLEDIQDADCSSSKCSSSASSKQNSKMIFGVRMYEDTVARNGNEANRWCAEPSSTVNTPHNREADEESLQLGNFPEPLFDVCKKSSVSKLSTPKERVSRRFGRSFTCDSCGFGFSCEKLLDEHVLTCTNRHLYQNTRSYHRIVDIRDGKDSNIKAEFGEKDSSKTFSAQTDKYRGDTSQAADDSASTTGSRKSSTVESEIASEEKSRAAERKRIIIKMEPEDIPTDELKDFNIIKVTDKDCNESTDNDELEDEPEEPFYRYYVEEDVSIKKSGRKTLKPRMSVSADERGGLENMRPPNNSSPVQEDAENASCELCGLTITEEDLSSHYLAKHIENICACGKCGQILVKGRQLQEHAQRCGEPQDLTMNGLGNTEEKMDLEENPDEQSEIRDMFVEMLDDFRDNHYQINSIQKKQLFKHSACPFRCPNCGQRFETENLVVEHMSSCLDQDMFKSAIMEENERDHRRKHFCNLCGKGFYQRCHLREHYTVHTKEKQFVCQTCGKQFLRERQLRLHNDMHKGMARYVCSICDQGNFRKHDHVRHMISHLSAGETICQVCFQIFPNNEQLEQHMDVHLYTCGICGAKFNLRKDMRSHYNAKHLKRT
Take B2: the Y2H matrices result in assay [1] is given as “+”. The “Interaction with viral protein” value in assay [2] was “NS3”. The “IMAP Y2H IMAP1 (number of IST)” value in assay [3] was 1.

B3: XRN2 (protein, UniProt Q9H0D6 1-950, looked up)
5'-3' exoribonuclease 2: MGVPAFFRWLSRKYPSIIVNCVEEKPKECNGVKIPVDASKPNPNDVEFDNLYLDMNGIIHPCTHPEDKPAPKNEDEMMVAIFEYIDRLFSIVRPRRLLYMAIDGVAPRAKMNQQRSRRFRASKEGMEAAVEKQRVREEILAKGGFLPPEEIKERFDSNCITPGTEFMDNLAKCLRYYIADRLNNDPGWKNLTVILSDASAPGEGEHKIMDYIRRQRAQPNHDPNTHHCLCGADADLIMLGLATHEPNFTIIREEFKPNKPKPCGLCNQFGHEVKDCEGLPREKKGKHDELADSLPCAEGEFIFLRLNVLREYLERELTMASLPFTFDVERSIDDWVFMCFFVGNDFLPHLPSLEIRENAIDRLVNIYKNVVHKTGGYLTESGYVNLQRVQMIMLAVGEVEDSIFKKRKDDEDSFRRRQKEKRKRMKRDQPAFTPSGILTPHALGSRNSPGSQVASNPRQAAYEMRMQNNSSPSISPNTSFTSDGSPSPLGGIKRKAEDSDSEPEPEDNVRLWEAGWKQRYYKNKFDVDAADEKFRRKVVQSYVEGLCWVLRYYYQGCASWKWYYPFHYAPFASDFEGIADMPSDFEKGTKPFKPLEQLMGVFPAASGNFLPPSWRKLMSDPDSSIIDFYPEDFAIDLNGKKYAWQGVALLPFVDERRLRAALEEVYPDLTPEETRRNSLGGDVLFVGKHHPLHDFILELYQTGSTEPVEVPPELCHGIQGKFSLDEEAILPDQIVCSPVPMLRDLTQNTVVSINFKDPQFAEDYIFKAVMLPGARKPAAVLKPSDWEKSSNGRQWKPQLGFNRDRRPVHLDQAAFRTLGHVMPRGSGTGIYSNAAPPPVTYQGNLYRPLLRGQAQIPKLMSNMRPQDSWRGPPPLFQQQRFDRGVGAEPLLPWNRMLQTQNAAFQPNQYQMLAGPGGYPPRRDDRGGRQGYPREGRKYPLPPPSGRYNWN
B3: the Y2H matrices result in assay [1] is listed as “+”. Besides, the “Interaction with viral protein” value in assay [2] is on record as “NS3”. Further, the “IMAP Y2H IMAP1 (number of IST)” value in assay [3] was determined as 1.

B4: ZCCHC7 (protein, UniProt Q8N3Z6 1-543, looked up)
Zinc finger CCHC …: MMFGGYETIEAYEDDLYRDESSSELSVDSEVEFQLYSQIHYAQDLDDVIREEEHEEKNSGNSESSSSKPNQKKLIVLSDSEVIQLSDGSEVITLSDEDSIYRCKGKNVRVQAQENAHGLSSSLQSNELVDKKCKSDIEKPKSEERSGVIREVMIIEVSSSEEEESTISEGDNVESWMLLGCEVDDKDDDILLNLVGCENSVTEGEDGINWSISDKDIEAQIANNRTPGRWTQRYYSANKNIICRNCDKRGHLSKNCPLPRKVRRCFLCSRRGHLLYSCPAPLCEYCPVPKMLDHSCLFRHSWDKQCDRCHMLGHYTDACTEIWRQYHLTTKPGPPKKPKTPSRPSALAYCYHCAQKGHYGHECPEREVYDPSPVSPFICYYDDKYEIQEREKRLKQKIKVLKKNGVIPEPSKLPYIKAANENPHHDIRKGRASWKSNRWPQENKETQKEMKNKNRNWEKHRKADRHREVDEDFPRGPKTYSSPGSFKTQKPSKPFHRSSHYHTSREDKSPKEGKRGKQKKKERCWEDDDNDNLFLIKQRKKKS
With B4, the Y2H matrices result in assay [1] is “+”. In addition, the “Interaction with viral protein” value in assay [2] is on record as “NS3”. In addition, in assay [3], the “IMAP Y2H IMAP1 (number of IST)” value amounted to 2 and the “IMAP Y2H IMAP2 (number of IST)” value is reported as 1.

B5: ZHX3 (protein, UniProt Q9H4I2 1-956, looked up)
Zinc fingers and homeoboxes …: MASKRKSTTPCMIPVKTVVLQDASMEAQPAETLPEGPQQDLPPEASAASSEAAQNPSSTDGSTLANGHRSTLDGYLYSCKYCDFRSHDMTQFVGHMNSEHTDFNKDPTFVCSGCSFLAKTPEGLSLHNATCHSGEASFVWNVAKPDNHVVVEQSIPESTSTPDLAGEPSAEGADGQAEIIITKTPIMKIMKGKAEAKKIHTLKENVPSQPVGEALPKLSTGEMEVREGDHSFINGAVPVSQASASSAKNPHAANGPLIGTVPVLPAGIAQFLSLQQQPPVHAQHHVHQPLPTAKALPKVMIPLSSIPTYNAAMDSNSFLKNSFHKFPYPTKAELCYLTVVTKYPEEQLKIWFTAQRLKQGISWSPEEIEDARKKMFNTVIQSVPQPTITVLNTPLVASAGNVQHLIQAALPGHVVGQPEGTGGGLLVTQPLMANGLQATSSPLPLTVTSVPKQPGVAPINTVCSNTTSAVKVVNAAQSLLTACPSITSQAFLDASIYKNKKSHEQLSALKGSFCRNQFPGQSEVEHLTKVTGLSTREVRKWFSDRRYHCRNLKGSRAMIPGDHSSIIIDSVPEVSFSPSSKVPEVTCIPTTATLATHPSAKRQSWHQTPDFTPTKYKERAPEQLRALESSFAQNPLPLDEELDRLRSETKMTRREIDSWFSERRKKVNAEETKKAEENASQEEEEAAEDEGGEEDLASELRVSGENGSLEMPSSHILAERKVSPIKINLKNLRVTEANGRNEIPGLGACDPEDDESNKLAEQLPGKVSCKKTAQQRHLLRQLFVQTQWPSNQDYDSIMAQTGLPRPEVVRWFGDSRYALKNGQLKWYEDYKRGNFPPGLLVIAPGNRELLQDYYMTHKMLYEEDLQNLCDKTQMSSQQVKQWFAEKMGEETRAVADTGSEDQGPGTGELTAVHKGMGDTYSEVSENSESWEPRVPEASSEPFDTSSPQAGRQLETD
B5: the Y2H matrices entry in assay [1] was “+”. For the same molecule, the “Interaction with viral protein” value in assay [2] is “NS3”. Moreover, the “IMAP Y2H IMAP1 (number of IST)” value in assay [3] stood at 4.

B6: ZNF281 (protein, UniProt Q9Y2X9 1-895, looked up)
Zinc finger protein 281: MKIGSGFLSGGGGTGSSGGSGSGGGGSGGGGGGGSSGRRAEMEPTFPQGMVMFNHRLPPVTSFTRPAGSAAPPPQCVLSSSTSAAPAAEPPPPPAPDMTFKKEPAASAAAFPSQRTSWGFLQSLVSIKQEKPADPEEQQSHHHHHHHHYGGLFAGAEERSPGLGGGEGGSHGVIQDLSILHQHVQQQPAQHHRDVLLSSSSRTDDHHGTEEPKQDTNVKKAKRPKPESQGIKAKRKPSASSKPSLVGDGEGAILSPSQKPHICDHCSAAFRSSYHLRRHVLIHTGERPFQCSQCSMGFIQKYLLQRHEKIHSREKPFGCDQCSMKFIQKYHMERHKRTHSGEKPYKCDTCQQYFSRTDRLLKHRRTCGEVIVKGATSAEPGSSNHTNMGNLAVLSQGNTSSSRRKTKSKSIAIENKEQKTGKTNESQISNNINMQSYSVEMPTVSSSGGIIGTGIDELQKRVPKLIFKKGSRKNTDKNYLNFVSPLPDIVGQKSLSGKPSGSLGIVSNNSVETIGLLQSTSGKQGQISSNYDDAMQFSKKRRYLPTASSNSAFSINVGHMVSQQSVIQSAGVSVLDNEAPLSLIDSSALNAEIKSCHDKSGIPDEVLQSILDQYSNKSESQKEDPFNIAEPRVDLHTSGEHSELVQEENLSPGTQTPSNDKASMLQEYSKYLQQAFEKSTNASFTLGHGFQFVSLSSPLHNHTLFPEKQIYTTSPLECGFGQSVTSVLPSSLPKPPFGMLFGSQPGLYLSALDATHQQLTPSQELDDLIDSQKNLETSSAFQSSSQKLTSQKEQKNLESSTGFQIPSQELASQIDPQKDIEPRTTYQIENFAQAFGSQFKSGSRVPMTFITNSNGEVDHRVRTSVSDFSGYTNMMSDVSEPCSTRVKTPTSQSYR
Turning to B6, the Y2H matrices entry in assay [1] was “+”. For the same molecule, the “Interaction with viral protein” value in assay [2] was “NS3”. The “IMAP Y2H IMAP1 (number of IST)” value in assay [3] worked out at 1.

The record behind these values is patent US20110091994A1, “Methods for Screening Compounds for Treating and/or Preventing an Hepatitis C Virus Infection” (priority 2008, published 2011).
